Our source for the Median : PE-A values is patent US20230048360A1.

Assay [1] concerns the target cell surface-bound human GPC3 on GPC3+ HepG2 cells (human) (UniProt P51654). The assay can be described thus: FACS, control (helper) phage on GPC3+ HepG2 cells, anti-M13 then PE anti-mouse IgG; same sample in FIGS. 2A-2E. (In general: A flow cytometer gives signals particle by particle.)
Assay [2] has the same target. As to the kind of experiment: FACS, control (helper) phage on GPC3+ HepG2 cells, anti-M13 then PE anti-mouse IgG; same sample in FIGS. 3A-3D.
Assay [3] has the same target. As to the kind of experiment: FACS, helper phage on GPC3+ HepG2 cells, mouse anti-M13 then PE anti-mouse IgG; same sample shown in all panels of FIGS. 1A-1G.
Assay [4] shares this target. The assay can be described thus: FACS, control mIgG1 on GPC3-positive HepG2 cells, PE anti-mouse IgG (H and L).

As for Negative control (helper phage), the values for the Median : PE-A in assay [1], in assay [2] and in assay [3] were 556, 106 and 99.4, respectively.

The substance control mIgG1 (antibody) showed a Median : PE-A in assay [4] of 93.8.
